Source: paper doi:10.1101/2023.12.23.573190 (bioRxiv, 2023)

How the values were obtained:
[1] = molecular target: carbonic anhydrase II protein (Sigma Aldrich, C2522) (Bos taurus, UniProt P00921); assay: SPR
[2] = molecular target: PTPRZ1 CA protein (Cusabio Technology LLC, CSB-YP019068HU) (Homo sapiens, UniProt P23471); assay: SPR
Chain of PTPRZ1 CA protein (Cusabio Technology LLC, CSB-YP019068HU) (P23471 36-300): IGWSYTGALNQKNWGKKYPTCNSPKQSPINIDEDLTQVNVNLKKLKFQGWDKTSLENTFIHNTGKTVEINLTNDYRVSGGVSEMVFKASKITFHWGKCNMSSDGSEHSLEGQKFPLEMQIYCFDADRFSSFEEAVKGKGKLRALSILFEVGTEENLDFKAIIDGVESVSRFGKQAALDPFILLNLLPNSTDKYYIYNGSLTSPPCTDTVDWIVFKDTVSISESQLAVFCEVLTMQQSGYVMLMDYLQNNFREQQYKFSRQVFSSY

Chain of carbonic anhydrase II protein (Sigma Aldrich, C2522) (P00921 whole entry): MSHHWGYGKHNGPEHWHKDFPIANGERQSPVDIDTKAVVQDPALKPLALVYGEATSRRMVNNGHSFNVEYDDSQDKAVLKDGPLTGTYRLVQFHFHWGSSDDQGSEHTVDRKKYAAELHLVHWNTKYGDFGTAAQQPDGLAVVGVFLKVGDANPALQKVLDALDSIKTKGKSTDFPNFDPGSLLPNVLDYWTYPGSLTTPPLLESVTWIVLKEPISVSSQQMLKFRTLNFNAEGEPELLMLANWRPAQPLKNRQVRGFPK

binding result [1]: no binding (tested: 800 nM) | Kd [2]: 57.4 nM
B1: anti-PTPRZ1 scFv RB473, scFv-Rabbit Fc (scFv, V domains shown)
VH: not shown
VL: QSVLTQPPSVSAAPGQKVTISCSGSSSNIGNNYVSWYQQLPGTAPKLLIYDNNKRPSGIPDRFSGSKSGTSATLGITGLQTGDEADYYCGTYDYIATRAVFGGGTKLTVL
